The source of these data is publication doi:10.1101/2023.10.12.561995 (bioRxiv, 2023).

Assay [1] addresses T1, SARS-CoV-2 RBD (wildtype), residues 319-541 of S-protein (SARS-CoV-2 wildtype, UniProt P0DTC2). In words: BLI.
For assay [2], the target named is T1, SARS-CoV-2 RBD (wildtype), residues …. The assay can be described thus: cell-based or functional assay.

B1: R1-26 (mAb, human IgG1) (antibody, V domains shown)
VH: EVQLVESGGGLVQPGGSLRLSCAASGFTFSSYWMSWVRQAPGKGLEWVANIKQDGSEKYYVDSVKGRFTISRDNAKNSLYLQMNSLRAEDTAVYYCARGQLGPWVGVDYWGQGTLVTVSS
VL: NFMLTQPHSVSESPGKTVTISCTGSSGSIASNYVQWYQQRPGSAPTTVIYEDNQRPSGVPDRFSGSIDSSSNSASLTISGLKTEDEADYYCQSYDSSNWVFGGGTQLTVL
Turning to B1, the Kd in assay [1] is 3.8 nM. Moreover, the “neutralisation of a pseudovirus displaying WT SARS-CoV-2 S-protein, IC50” value in assay [2] was 2.7 nM.
